The record followed here is paper PMC9028814.

A word on the koff: it is the rate constant with which the complex falls apart. Usually kon stands for a measure of how fast the partners come together. A low value points to slower complex formation.

This test concerns the target Acid-solubilized type I bovine collagen (bovine) (UniProt P02453). Briefly: SPR. A general note: SPR reads the build-up and loss of mass on a sensor chip optically.
Chain of UniProt P02453 (P02453 162-1217, chain 1 of 2): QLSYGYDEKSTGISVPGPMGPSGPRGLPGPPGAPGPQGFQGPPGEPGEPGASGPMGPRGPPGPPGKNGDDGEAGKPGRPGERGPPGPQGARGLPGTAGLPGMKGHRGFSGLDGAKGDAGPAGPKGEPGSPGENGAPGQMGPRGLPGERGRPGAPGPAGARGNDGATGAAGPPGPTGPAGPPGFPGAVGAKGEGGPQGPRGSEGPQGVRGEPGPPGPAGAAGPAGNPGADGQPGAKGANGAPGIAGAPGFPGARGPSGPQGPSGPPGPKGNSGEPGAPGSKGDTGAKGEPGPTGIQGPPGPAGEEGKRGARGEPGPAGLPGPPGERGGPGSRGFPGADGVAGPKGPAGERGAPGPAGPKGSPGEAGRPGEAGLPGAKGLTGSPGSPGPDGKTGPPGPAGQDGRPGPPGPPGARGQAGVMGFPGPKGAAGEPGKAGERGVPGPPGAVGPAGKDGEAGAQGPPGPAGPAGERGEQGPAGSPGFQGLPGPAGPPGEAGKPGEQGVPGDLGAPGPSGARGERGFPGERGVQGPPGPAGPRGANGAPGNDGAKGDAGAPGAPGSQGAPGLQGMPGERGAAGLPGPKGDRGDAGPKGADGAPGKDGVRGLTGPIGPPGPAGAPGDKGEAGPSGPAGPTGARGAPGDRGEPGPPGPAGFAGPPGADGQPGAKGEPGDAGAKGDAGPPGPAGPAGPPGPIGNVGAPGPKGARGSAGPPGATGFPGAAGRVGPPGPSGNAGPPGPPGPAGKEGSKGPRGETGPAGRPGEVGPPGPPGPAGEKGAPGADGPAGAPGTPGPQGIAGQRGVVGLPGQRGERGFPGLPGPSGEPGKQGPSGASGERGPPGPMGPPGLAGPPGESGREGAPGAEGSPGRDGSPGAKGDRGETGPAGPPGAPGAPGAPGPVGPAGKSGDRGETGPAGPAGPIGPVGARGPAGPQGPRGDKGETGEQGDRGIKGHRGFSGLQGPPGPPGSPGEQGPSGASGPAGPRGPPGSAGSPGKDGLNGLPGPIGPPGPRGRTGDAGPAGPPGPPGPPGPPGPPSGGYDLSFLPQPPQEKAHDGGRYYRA
Chain of UniProt P02453 (P02465 80-1117, chain 2 of 2, further chain): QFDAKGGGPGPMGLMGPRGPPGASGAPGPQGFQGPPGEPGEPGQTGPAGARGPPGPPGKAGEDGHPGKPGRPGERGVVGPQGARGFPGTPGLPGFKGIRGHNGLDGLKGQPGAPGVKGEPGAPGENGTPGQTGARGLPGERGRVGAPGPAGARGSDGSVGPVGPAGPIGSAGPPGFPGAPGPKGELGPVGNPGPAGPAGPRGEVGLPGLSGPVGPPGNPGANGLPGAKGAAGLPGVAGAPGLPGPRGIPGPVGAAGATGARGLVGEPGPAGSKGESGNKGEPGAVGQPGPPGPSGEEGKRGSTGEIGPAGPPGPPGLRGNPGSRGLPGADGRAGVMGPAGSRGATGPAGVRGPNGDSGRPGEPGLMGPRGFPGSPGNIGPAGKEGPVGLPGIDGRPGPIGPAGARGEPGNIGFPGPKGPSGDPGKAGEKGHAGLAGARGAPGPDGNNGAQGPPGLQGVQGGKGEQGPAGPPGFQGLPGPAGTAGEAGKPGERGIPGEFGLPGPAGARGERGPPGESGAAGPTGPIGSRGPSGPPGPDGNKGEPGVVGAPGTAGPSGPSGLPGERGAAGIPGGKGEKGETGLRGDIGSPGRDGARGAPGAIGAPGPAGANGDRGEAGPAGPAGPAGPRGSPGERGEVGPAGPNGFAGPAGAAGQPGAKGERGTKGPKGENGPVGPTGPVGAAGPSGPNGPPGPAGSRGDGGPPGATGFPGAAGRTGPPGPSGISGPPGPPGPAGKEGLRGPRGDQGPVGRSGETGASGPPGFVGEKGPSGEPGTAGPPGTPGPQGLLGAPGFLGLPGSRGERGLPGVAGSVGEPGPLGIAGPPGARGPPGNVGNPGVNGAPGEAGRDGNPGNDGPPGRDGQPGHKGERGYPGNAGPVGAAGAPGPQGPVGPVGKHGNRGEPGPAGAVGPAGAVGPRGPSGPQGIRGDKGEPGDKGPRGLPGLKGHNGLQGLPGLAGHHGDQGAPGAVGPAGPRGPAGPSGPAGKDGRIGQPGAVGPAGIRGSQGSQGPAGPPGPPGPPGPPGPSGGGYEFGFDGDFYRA

As to “Human plasma von Willebrand factor (from UniProt P04275 764-2813) (natural protein)”, the koff was determined as 0.00073 s⁻¹.
On to “Recombinant wild type von Willebrand factor (from UniProt P04275 764-2813) (natural protein)”, for which the koff came to 0.000932 s⁻¹ and the kon worked out at 2.36e+06 M⁻¹ s⁻¹.
